In the nanobody polyreactivity screen of Harvey et al. (2022):

Assay: yeast display, Sf9 membrane polyspecificity reagent, FACS + sequencing; frameworks hold sequencing errors
In short: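 Galactose induction of a Saccharomyces cerevisiae BJ5465 synthetic nanobody display library ran 36–48 hours. The cells were then stained for 1 hour at 4 °C with 10% biotinylated, detergent-solubilized Sf9 membrane reagent, pulled down on streptavidin microbeads and FACS-sorted into low and high (top ~1%) gates on expression and reagent-binding fluorescence. Labels for polyreactivity follow the gate of origin.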

Sequence	polyreactivity (PSR sort gate)
QVQLVESGGGLVQAGGSLRLSCAASGSTFYKNAMGWYRQAPGKERELVAAITRSGGSTYYADSVKGRFTISRDNAKNTVYLQMNSLKPVDTAVYYCAYYPYGYDYWGQGTQVTVSS	high polyreactivity
QVQLVESGGGLVQAGGSLRLSCAASGSTFYKYAMGWYRQAPGKERELVASISRSGGSTSYADSVKGRFTISRDNAKNTVYLQMNSLKPEDTAVYYCAATWRQHPGSMGYWGQGTQVTVSS	high polyreactivity
QVQLVESGGGLVQAGGSLRLSCAASGSTFYKYAMGWYRQAPGKERELVASISRSGGSTSYADSVKGRFTISRDNAKNTVYLQMNSLKPEDTEVYYCAATWRQHPGSMGYWGQGTQVTVSS	high polyreactivity
QVQLVESGGGLVQAGGSLRLSCAASGSTFYKYAMGWYRQAPGQVREVVASISSSGGSTYADSVKGRFTISRDNAKNTVYLQMNSLKPEDTAVYYCARVRWIVPWSGPTDDYWGQGTQVTVSS	low polyreactivity
QVQLVESGGGLVQAGGSLRLSCAASGSTFYKYGMGWYRQAPGTERELVAAISGSGDSTYYADSVKGRFTISRDNAKNTVYLQMNSLKPEDTAVYYCNAGPWWYLHEYDYWGQGTQVTVSS	low polyreactivity
QVQLVESGGGLVQAGGSLRLSCAASGSTFYLYAMGWYRQAPGKEREFVARISASGGNTYYADSVKGRFTISRDNAKNTVYLQMNSLKPEDTAVYYCATRGSRYPYVAYNYWGQGTQVTVSS	high polyreactivity
QVQLVESGGGLVQAGGSLRLSCAASGSTFYLYAMGWYRQAPGKERELVAAISSGGRTNYADSVKGRFTISLDNAKNTVYLQINSLKPEDTAVYYCAARIQWPTWSLYYYWGQGSQVTVSS	high polyreactivity
QVQLVESGGGLVQAGGSLRLSCAASGSTFYNYAMGWYRQAPGKERELVAAITSSGGSTYYADSVKGRFTISRDNAKNTVYLQMNSLKPEDTAVYYCAATRRDRRKSFTYRYDYWGQGTQVTVSS	high polyreactivity
QVQLVESGGGLVQAGGSLRLSCAASGSTFYNYAMGWYRQEPGKERELVAAINYSGGDTYYADSVKGRFTISRDNAKNTVYLQMNSLKPEDNAVYYCNAEWDYYSSNPVQNDYDYWGQGTQVTVSS	high polyreactivity
QVQLVESGGGLVQAGGSLRLSCAASGSTFYPNAMGRYRQAPGKERELVAAISRGTRTKYADSVKGRFTISRDNAKNNVYLQMNSLKPEDTAVYYCAADTGTGLDWGQGTQVNVSS	high polyreactivity
QVQLVESGGGLVQAGGSLRLSCAASGSTFYPNAMGWYIQAPGKERELVADITISGGRTYYADSVKGLFTISRDNAKNTVYLQMNSLKPEDTAVYYCNTRGIFFQSQTHDYWGQGTQVTVSS	low polyreactivity
QVQLVESGGGLVQAGGSLRLSCAASGSTFYPNAMGWYRQAPGKERELVAAISGDDSTYYADSVKGRFTISRDNAKNTVYLQMNSLKPEDTAVYYCAAGDYRIGYLYYYWGQGTQVTVSS	low polyreactivity
QVQLVESGGGLVQAGGSLRLSCAASGSTFYPNAMGWYRQAPGKERELVAAITSAGSTYYADSVKGRFTISRDNAKNTVYLQMNSLKPEDTAVYYCAKRRASRYYWGQGTQVTVSS	high polyreactivity
QVQLVESGGGLVQAGGSLRLSCAASGSTFYPNAMGWYRQAPGKERELVAAITSGGSTNYADSVKGRFTISRDNAKNTVYLQMNSLKPEDTAVYYCAAVGKYRIRSDYWGQGTQVTVSS	low polyreactivity
QVQLVESGGGLVQAGGSLRLSCAASGSTFYPNSMVWYRQAPGKERELVAAISRGTRTKYADSVKGRFTISRDNAKNSVYLQKNSLKPEDTAVYYCAADTGTGLDWGQGTQVTVSS	high polyreactivity
QVQLVESGGGLVQAGGSLRLSCAASGSTFYPYAMGGYRQAPGKERELVAAISSGGSTYYADSVKGRFTISRDNAKNTVYLQMNSLKPADTAVYYCAADFYYAYYWGQGTQVTVSS	low polyreactivity
QVQLVESGGGLVQAGGSLRLSCAASGSTFYPYAMGWYRQAPGKERELVAAINLRADSTNYADSVKGRFTISRDNAKNTVYLQMNSLKPEDTAVYYCAARVSYRSGRRPLWAYNSWGQGTQVTVSS	high polyreactivity
QVQLVESGGGLVQAGGSLRLSCAASGSTFYPYAMGWYRQAPGKERELVAAINWSGGTTYYADSVKGRFTLSRDNAKNTVYLQMNSLKPEDTAVYYCAAVGYPPGYGYWGQGTQVTVSS	low polyreactivity
QVQLVESGGGLVQAGGSLRLSCAASGSTFYPYAMGWYRQAPGKERELVAAISSGGSTSYADSVKGRFTISRENAKNTVYLQMNSLKPEDTAVYYCNASSPVAVPVYDYDYWGQGTQVTVSS	low polyreactivity
QVQLVESGGGLVQAGGSLRLSCAASGSTFYPYAMGWYRQAPGKERELVAAITSGGRTYYADSVKGRFTISRDNAKNTVYLQMNSLKPEDTAVYYCAAVYINRLTSKYEYWGQGTQVTVSS	high polyreactivity
QVQLVESGGGLVQAGGSLRLSCAASGSTFYPYAMGWYRQAPGNERELVAALDRGGSTSYADSVKGRFTISRDNAKNTVYLQMIRLKPEDTAVYYCAVARGGRRKYEYWGQGTQVTVSS	low polyreactivity
QVQLVESGGGLVQAGGSLRLSCAASGSTFYPYDMGLYRQAPGKERELVATITSTGGSTNYADSVKGRFTISRDNAQNTVYLQMNSLKPEDTAVYYCAKDWNDDQHSWDTPFDYWGQGTHVTVSS	low polyreactivity
